Data as given in publication PMC4669500, “Characterization of Pseudooxynicotine Amine Oxidase of Pseudomonas putida S16 that Is Crucial for Nicotine Degradation” (Scientific Reports, 2015).

Tests used:
[1] = biological target: T1, Pnao (pseudooxynicotine amine oxidase) (Pseudomonas putida, UniProt F8G0P1); assay: HPLC and UV-Vis of cofactor released by boiling purified protein; type: binding; settings: co-purified cofactor, non-covalent (released by boiling)
T1 construct: full-length, His6-tagged (pET28a NcoI-XhoI, tag kept), expressed in E. coli C43(DE3), about 54 kDa; FAD-containing

CNCCCC(=O)c1cccnc1 = assay: purified protein; type: biochemical, Pseudomonas putida; settings: 30 °C, 25 mM sodium phosphate pH 8.5, O2 as oxidant

T1 sequence (F8G0P1 whole entry): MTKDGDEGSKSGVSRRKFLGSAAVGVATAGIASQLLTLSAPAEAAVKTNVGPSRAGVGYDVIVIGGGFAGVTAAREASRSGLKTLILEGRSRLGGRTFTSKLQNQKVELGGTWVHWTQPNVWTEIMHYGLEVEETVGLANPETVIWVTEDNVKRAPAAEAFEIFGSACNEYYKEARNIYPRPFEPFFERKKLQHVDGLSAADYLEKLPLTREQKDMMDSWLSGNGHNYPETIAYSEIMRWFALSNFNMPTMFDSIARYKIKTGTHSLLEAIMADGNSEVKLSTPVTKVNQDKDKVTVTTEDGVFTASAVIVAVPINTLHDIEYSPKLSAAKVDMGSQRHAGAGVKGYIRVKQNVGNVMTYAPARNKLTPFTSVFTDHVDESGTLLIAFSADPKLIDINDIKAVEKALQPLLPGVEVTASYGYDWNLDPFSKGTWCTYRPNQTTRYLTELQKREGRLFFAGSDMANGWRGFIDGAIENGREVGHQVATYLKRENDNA

Molecule | HPLC and UV-Vis of cofactor released by boiling purified protein [1] | Km (CNCCCC(=O)c1cccnc1) [mM] | kcat (CNCCCC(=O)c1cccnc1) [s⁻¹]
Cc1cc2nc3c(=O)[nH]c(=O)nc-3n(C[C@H](O)[C@H](O)[C@H](O)COP(=O)(O)OP(=O)(O)OC[C@H]3O[C@@H](n4cnc5c(N)ncnc54)[C@H](O)[C@@H]3O)c2cc1C [FAD, Flavin adenine dinucleotide] | These results indicated that FAD was the cofactor associated with Pnao | – | –
Pnao (pseudooxynicotine amine oxidase) (Pseudomonas putida S16) | – | 0.073 ± 0.018 | 0.790 ± 0.074
